# Residue numbers refer to the chain shown, from its start. Names and notes keep the numbering of the source.
# T1: PUF4 RNA-binding domain (Saccharomyces cerevisiae, UniProt P25339 537-888)
# T1 sequence: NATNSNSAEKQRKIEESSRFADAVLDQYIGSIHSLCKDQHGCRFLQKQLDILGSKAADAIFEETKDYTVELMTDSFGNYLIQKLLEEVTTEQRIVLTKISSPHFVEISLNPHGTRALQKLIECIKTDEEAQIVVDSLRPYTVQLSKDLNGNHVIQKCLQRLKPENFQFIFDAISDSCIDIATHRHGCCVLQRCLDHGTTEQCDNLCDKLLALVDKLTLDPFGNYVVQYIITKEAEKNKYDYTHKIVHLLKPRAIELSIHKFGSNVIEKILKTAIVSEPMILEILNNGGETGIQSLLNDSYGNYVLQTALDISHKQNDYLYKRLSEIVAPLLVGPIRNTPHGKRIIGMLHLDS
# B1: Ib_S2_P3E.1_K3.1_C3.1_H3.1_A3.1_[A6T]_F3.1_[A8G]_T3.1 (ssRNA)
# RNA: UUUGAUUAAUAUGAUAUCGUUCUUUCUUGUAUUUGUUCUUUCUCGAUAUCAUAUUAAUCUUU
# B2: Ib_S2_P3E.1_K3.1_C3.1_H3.1_A3.1_[A6G]_F3.1_[A8C]_T3.1 (ssRNA)
# RNA: B1 RNA with U33G, G35C
# B3: Ie_S2_P4E.1_K4.1_C4.1_H4.1_[+2CTCT]_A4.1_F4.1_T4.1 (ssRNA)
# RNA: UUUGAUUAAUAUGAUAUCGUUCUUUCUUGCUCUUAUAUUAUUCUUUCUCGAUAUCAUAUUAAUCUUU
# B4: Ie_S2_P4E.1_K4.1_C4.1_H4.1_[+3CCCT]_A4.1_F4.1_T4.1 (ssRNA)
# RNA: B3 RNA with C30U, U31C, U33C
# B5: Ie_S2_P4E.1_K4.1_C4.1_H4.1_[+2TCTC]_A4.1_F4.1_T4.1 (ssRNA)
# RNA: B3 RNA with C30U, U31C, C32U, U33C
# B6: Ie_S2_P4E.1_K4.1_C4.1_H4.1_[+3CCTC]_A4.1_F4.1_T4.1 (ssRNA)
# RNA: B3 RNA with C30U, U31C, U34C
# B7: Ie_S2_P4E.1_K4.1_C4.1_H4.1_[+2CCCT]_A4.1_F4.1_T4.1 (ssRNA)
# RNA: B3 RNA with U31C
# B8: Ie_S2_P4E.1_K4.1_C4.1_H4.1_[+2TTCC]_A4.1_F4.1_T4.1 (ssRNA)
# RNA: B3 RNA with C30U, U33C
# B9: Ie_S2_P4E.1_K4.1_C4.1_H4.1_[+2TCC]_A4.1_F4.1_T4.1 (ssRNA)
# RNA: UUUGAUUAAUAUGAUAUCGUUCUUUCUUGUCCUAUAUUAUUCUUUCUCGAUAUCAUAUUAAUCUUU
# B10: Ie_S2_P4E.1_K4.1_C4.1_H4.1_[+3CTT]_A4.1_F4.1_T4.1 (ssRNA)
# RNA: B9 RNA with C32U
# B11: Ie_S2_P4E.1_K4.1_C4.1_H4.1_[+3CTC]_A4.1_F4.1_T4.1 (ssRNA)
# RNA: B9 RNA with C32U, U33C
# B12: Ie_S2_P4E.1_K4.1_C4.1_H4.1_[+2CTT]_A4.1_F4.1_T4.1 (ssRNA)
# RNA: B9 RNA with U30C, C31U, C32U
# B13: Ie_S2_P4E.1_K4.1_C4.1_H4.1_[+2C]_A4.1_F4.1_T4.1 (ssRNA)
# RNA: UUUGAUUAAUAUGAUAUCGUUCUUUCUUGCUAUAUUAUUCUUUCUCGAUAUCAUAUUAAUCUUU
# B14: Ie_S2_P4E.1_K4.1_C4.1_H4.1_[+2CT]_A4.1_F4.1_T4.1 (ssRNA)
# RNA: UUUGAUUAAUAUGAUAUCGUUCUUUCUUGCUUAUAUUAUUCUUUCUCGAUAUCAUAUUAAUCUUU
# B15: Ie_S2_P4E.1_K4.1_C4.1_H4.1_[+3TT]_A4.1_F4.1_T4.1 (ssRNA)
# RNA: B14 RNA with C30U
# B16: Ie_S2_P4E.1_K4.1_C4.1_H4.1_[+2TC]_A4.1_F4.1_T4.1 (ssRNA)
# RNA: B14 RNA with C30U, U31C
# B17: Ie_S2_P4E.1_K4.1_C4.1_H4.1_[+2CTCTC]_A4.1_F4.1_T4.1 (ssRNA)
# RNA: UUUGAUUAAUAUGAUAUCGUUCUUUCUUGCUCUCUAUAUUAUUCUUUCUCGAUAUCAUAUUAAUCUUU
# B18: Ie_S2_P4E.1_K4.1_C4.1_H4.1_[+2TCTCT]_A4.1_F4.1_T4.1 (ssRNA)
# RNA: B17 RNA with C30U, U31C, C32U, U33C, C34U
# B19: Ie_S2_P4E.1_K4.1_C4.1_H4.1_[+3TCTCT]_A4.1_F4.1_T4.1 (ssRNA)
# RNA: B17 RNA with C30U
# B20: Ie_S2_P4E.1_K4.1_C4.1_H4.1_[+3CTCTC]_A4.1_F4.1_T4.1 (ssRNA)
# RNA: B17 RNA with C30U, U31C, C32U, U33C, C34U, U35C
# B21: Ie_S2_P4E.1_K4.1_C4.1_H4.1_[+2CCTCT]_A4.1_F4.1_T4.1 (ssRNA)
# RNA: B17 RNA with U31C, C32U, U33C, C34U
# Target: T1, PUF4 RNA-binding domain
# Assay: Mg; RNA-MaP; 20 mM Na-HEPES pH 7.4, 30 mM KOAc, 0.75 mM MgCl2, 0.1% Tween-20, 5% glycerol, 0.1 mg/mL BSA, 2 mM DTT; 25 C; 0.0125-409.6 nM protein
# Conditions: tags: N-His6-TEV cleaved; C-SNAP kept, Cy3B-labelled; label: tethered on chip by stalled RNA polymerase
row,Binder,Kd [nM]
1,B1,37.8
2,B2,90.1
3,B3,47.4
4,B4,41.4
5,B5,16.8
6,B6,106
7,B7,127
8,B8,17.9
9,B9,10.9
10,B10,14.4
11,B11,9.57
12,B12,111
13,B13,81.5
14,B14,198
15,B15,34.1
16,B16,27.8
17,B17,101
18,B18,26.5
19,B19,12
20,B20,135
21,B21,122
